{"source": "the nanobody polyreactivity screen of Harvey et al. (2022)"}
{"assay": "yeast display, Sf9 membrane polyspecificity reagent, FACS + sequencing; frameworks hold sequencing errors", "outline": "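Nanobodies came from a synthetic yeast display library in Saccharomyces cerevisiae BJ5465, induced with galactose for 36–48 hours and stained for 1 hour at 4 °C with 10% biotinylated, detergent-solubilized Sf9 membrane reagent. Cells were enriched on streptavidin microbeads and then FACS-sorted, with low and high (top ~1%) gates set on anti-HA fluorescence for expression and streptavidin fluorescence for reagent binding. Each polyreactivity label reflects the gate a clone came from. Genes were amplified by colony PCR, sequenced by MiSeq 2 × 250 and filtered by CDR length.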"}
{"sequence": "QVQLVESGGGLVQAGGSLRLSCAASGSTVGHYAMGWYRQAPGKERELVAAISVSGGSTYYADSVKGRFTISRDHAKNTVYLQMNSLKPEDTAVYYCAREYAHLSFLSTSSDYWGQGTQVTVSS", "polyreactivity (PSR sort gate)": "low polyreactivity"}
{"sequence": "QVQLVESGGGLVQAGGSLRLSCAASGSTVKTYAMGWYRQAPGKERELVAAISWSGGSTYYADSVKGRFTISRDNAKNTVYLQMNSLKPEDTAVYYCNAGWGYPSPWFIGEYWGQGTQVTVSS", "polyreactivity (PSR sort gate)": "low polyreactivity"}
{"sequence": "QVQLVESGGGLVQAGGSLRLSCAASGSTVYYNAMGWYRQAPGKERELVAAISRSGGRTYYADSVKGRFTISRDNAKNTVYLQMNSLKPEDTAVYYCAADAPGHEYYYWGQGTQVTVSS", "polyreactivity (PSR sort gate)": "high polyreactivity"}
{"sequence": "QVQLVESGGGLVQAGGSLRLSCAASGSTYIANPMGWYRQAPGKEREFLATISRRGGSTYYADSVKGRFTISRDNAKNTVYLQMNSLKPEDTAVYYCAARPLTYIRFRYYYWGQGTQVTVSS", "polyreactivity (PSR sort gate)": "high polyreactivity"}
{"sequence": "QVQLVESGGGLVQAGGSLRLSCAASGSTYIDYAMGWYRQAPGKERELVASIRYSGGGTYYADSVKGRFTISRDNAKNTVYFQMNSLKPEDTAVYYCAKDTHLLNEHSGTSREYDYWGQGTQVTVSS", "polyreactivity (PSR sort gate)": "low polyreactivity"}
{"sequence": "QVQLVESGGGLVQAGGSLRLSCAASGSTYPGNAMGWYRQAPGNERELVALINDGADTNYADSVKGRFTISRDNAKNTVYLQMNSLKPEDTAVYYCAKRSLYPTYDYWGQGTQVTVSS", "polyreactivity (PSR sort gate)": "low polyreactivity"}
{"sequence": "QVQLVESGGGLVQAGGSLRLSCAASGSTYQGYAMGWYRQAPGKERELVAAISGRSGSTYYADSVKGRFTISRDNAKNTVYLEMNSLKQEDTAVYYFNAVTGVNPSLDYWGQGTQVTVSS", "polyreactivity (PSR sort gate)": "high polyreactivity"}
{"sequence": "QVQLVESGGGLVQAGGSLRLSCAASGSTYRYVMGWYRQAPGKERELVAAITYTGGSTYYADSVKGRFTISRDNAKNTVYLQMNSLKPEDTAVYYCAASRYYTFDYWGQGTQVTVSS", "polyreactivity (PSR sort gate)": "high polyreactivity"}
{"sequence": "QVQLVESGGGLVQAGGSLRLSCAASGSTYSYYAMGWYRQAPGKERELVAAITSSGSSTYYADSVKARFTISRDNAKNTVYLPMISLKPEDPAVYYCAAGRYRYTYRYFTAWYGYWGQGTQVTVSS", "polyreactivity (PSR sort gate)": "high polyreactivity"}
{"sequence": "QVQLVESGGGLVQAGGSLRLSCAASGSTYYANAMGWYRQAPGKEREFVATISSSDGSTYYADSVKGRFTISRDNAMNTVYLQMYSLKPEDTAVYYCNAADYPEAHSTYYYWGQGTLVTVSS", "polyreactivity (PSR sort gate)": "low polyreactivity"}
{"sequence": "QVQLVESGGGLVQAGGSLRLSCAASGSTYYNAMGWSRQAPGNERELVAAIRFRSGSTYYADSVKGRFTISRDNAKNTVYLQMNSLTPEDTAVYYCAADNKRSWRYAYNYWGQGTQVTVSS", "polyreactivity (PSR sort gate)": "high polyreactivity"}
{"sequence": "QVQLVESGGGLVQAGGSLRLSCAASGSTYYNAMGWYRQAPGKERELVAAIRFRSGSTYYADSVKGRFTISRDNAKNTVYLQMNSLKPEDTAVYYCAADNKRSWRYAYNYWGQGTQVTVSS", "polyreactivity (PSR sort gate)": "high polyreactivity"}
{"sequence": "QVQLVESGGGLVQAGGSLRLSCAASGTFFGYAMGWYRQAPGKERELVAAITSGGSTYYADSVKGRFTISRDNAKNTVYLQMNSLKPEVTAVYYCARVYSRWSYRYDYWGQGTQVTVSS", "polyreactivity (PSR sort gate)": "low polyreactivity"}
{"sequence": "QVQLVESGGGLVQAGGSLRLSCAASGTFFIYAMGWYRQAPGKERELVATISSGGSTNYADSVKGRFTISRDNAKNTVYLQMNSLKPEDTAVYYCAAEWLYPHDGGYPRPMDYWGQGTQVTVSS", "polyreactivity (PSR sort gate)": "low polyreactivity"}
{"sequence": "QVQLVESGGGLVQAGGSLRLSCAASGTFFIYAMGWYRQAPGKERELVATISTGGSTNYADSVKGRFTISRDNAKNTVYLQMNSLKPEDTAVYYFAAEWLYPHDGGYPRPMDYWGQGTQVTVSS", "polyreactivity (PSR sort gate)": "low polyreactivity"}
{"sequence": "QVQLVESGGGLVQAGGSLRLSCAASGTFGVYAMGWYRQAPGKERELVAVITDSGGTNYADSVKGRFTISRDNAKNTVYLQMNSLKPEDTAVYYCNTDAGDYYGENYWGQGTQVTVSS", "polyreactivity (PSR sort gate)": "low polyreactivity"}
{"sequence": "QVQLVESGGGLVQAGGSLRLSCAASGTFSNYAMGWYRQAPGKERELVAGISKRGGSTYYADSVKGRFTISRDNAKNTVYLQMNSLKPEDTAVYYCRVYAYDYWGQGTQVTVSS", "polyreactivity (PSR sort gate)": "low polyreactivity"}
{"sequence": "QVQLVESGGGLVQAGGSLRLSCAASGTFSSYAMGWYRQAPGKERELVAAITNGGNTNYADSVKGRFTISRDNAKNTVYLQMNSLKPEDTAVYYCNARYGNESQGWEDYWGQGTQVTVSS", "polyreactivity (PSR sort gate)": "low polyreactivity"}
{"sequence": "QVQLVESGGGLVQAGGSLRLSCAASGTFTRNVMGWYRQAPGKERELVAAIDNGSSTNYADSVKGRFTISRDNAKNTVYLQINSQKPEDTAVYYCANERPRSAGSAASIEQQMDYWGQGTQVTVSS", "polyreactivity (PSR sort gate)": "low polyreactivity"}
{"sequence": "QVQLVESGGGLVQAGGSLRLSCAASGTFTVNTMGWYRQAPGKERELVAAISTGDTTTYADSVKGRFTISRDNAKNTVYLQMNSLKPEDTAVYYCNVDIGVYAYESDYWGQGTQVTVSS", "polyreactivity (PSR sort gate)": "low polyreactivity"}
{"sequence": "QVQLVESGGGLVQAGGSLRLSCAASGTFYGYAMGGYRQSPGKERELVAAITWSGGSTYYADSVKGRFTISRDNAKNTVYLQMNSLKPEDTAVYYCAASLYSGYDSWGQGTQVTVSS", "polyreactivity (PSR sort gate)": "low polyreactivity"}
{"sequence": "QVQLVESGGGLVQAGGSLRLSCAASGTFYYYAMGWYRQAPGKERELVAAISNGDSTTYADSVKGRFTISRDNAKNTVYLQMTSLKPEDTAVYYCAAYRYTPRTSRGYYYWGQGTQVTVSS", "polyreactivity (PSR sort gate)": "low polyreactivity"}
{"sequence": "QVQLVESGGGLVQAGGSLRLSCAASGTIFDYNAMGWYRQAPGKERELVAAISWRGGTTYYADSVKGRFTISRDNAKNTVYLQMNSLKPEDTAVYYCAAGRRGVYHGGYWGQGTQVTVSS", "polyreactivity (PSR sort gate)": "high polyreactivity"}
{"sequence": "QVQLVESGGGLVQAGGSLRLSCAASGTIFFGNTMGWYRQAPGKERELVAVITSSGGRTFYADSVKGRFTISRDNAKNTVYLHMNSLKPEDTAVYYCAAGHGFYYFTPTHDSWGQGTQVTVSS", "polyreactivity (PSR sort gate)": "high polyreactivity"}
{"sequence": "QVQLVESGGGLVQAGGSLRLSCAASGTIFGGYGRGWYRQAPGKERELVAAITSGSSTYYADSVKGRFTISRDNAKNTVYLQMNSLKPEDTAVYYCAARPFPHSAYEGDYWGRGTQVTVSS", "polyreactivity (PSR sort gate)": "low polyreactivity"}
{"sequence": "QVQLVESGGGLVQAGGSLRLSCAASGTIFGKYAMGWYRQAPGKERELDAAISRAGGRTYYADSVKGRFTISRDNAKNTVYLQMNSLIPEDTAVYYCNAGNLHSGGQRWNLYYWGQCTQVTVSS", "polyreactivity (PSR sort gate)": "high polyreactivity"}
{"sequence": "QVQLVESGGGLVQAGGSLRLSCAASGTIFSVNAMGWYRQRLGKKGSWWPLFLTLLPSTYYADSVKARFTISRDNAKNTVYLQMNSLKPEDTAVYYCNAVYSVDFPTPTSDGDPDGFDYWGQGTQVTVSS", "polyreactivity (PSR sort gate)": "low polyreactivity"}
{"sequence": "QVQLVESGGGLVQAGGSLRLSCAASGTIFTHNAMGWYRQAAGKEREFVAAISSGGSTNYADSVNGRFTISRDNAKNTVYLQMNSLKPQDTAVYYCAKSIDGWYWRRRRYDYWGHGTQVTVSS", "polyreactivity (PSR sort gate)": "low polyreactivity"}
{"sequence": "QVQLVESGGGLVQAGGSLRLSCAASGTIFYIYAMGWYRQAPGKERELVAAITWRGGRTYYADSVKGRFTISRDNAKNTVYLQMNSLKPEDTAVYYCAALYANYYYRYEYWGQGTQVTVSS", "polyreactivity (PSR sort gate)": "high polyreactivity"}
{"sequence": "QVQLVESGGGLVQAGGSLRLSCAASGTLRYYAMGWYRQAPGKERELVAAISKSGGRTYYADSVKGRFTISRDNAKNTVYLQMNSLKPEDTAVYYCAARGWTANYEMDHWGQGTQVTVSS", "polyreactivity (PSR sort gate)": "high polyreactivity"}
{"sequence": "QVQLVESGGGLVQAGGSLRLSCAASGTLYINVMGWYRQAPGKERELVAAISSNGARTYYADSVKGRFTISRDNAKNTVYLQMNSLKPEDTAVYYCNRVASVRARDYDYWGQGTQVTVSS", "polyreactivity (PSR sort gate)": "high polyreactivity"}
{"sequence": "QVQLVESGGGLVQAGGSLRLSCAASGTMGWYRQAPGKERELVAAISSSDRTSYADSVKGRFTISRDNAKNTVYLQMNSLKPEDTAVYYCNASTVFAWRTTTLKLFYTAHDYWGQGTQVTVSS", "polyreactivity (PSR sort gate)": "low polyreactivity"}
{"sequence": "QVQLVESGGGLVQAGGSLRLSCAASGTTFAWNTMGWYRQAPGKERELVARISRRSVSTYYADSVKGRFTISRDNAKNTVYLQMNSLKPEDTAVYYCAADYFSYQKYDYWGQGTQVTVSS", "polyreactivity (PSR sort gate)": "low polyreactivity"}
{"sequence": "QVQLVESGGGLVQAGGSLRLSCAASGTTFVIYAKGWYRQAPGKERELVASISGSGGSTFYADSVKGRFTISRDNAKITVYLQMNSLKPEDTAVYYCAAAVGVGRSGGTYDYWGQGTQVTVSS", "polyreactivity (PSR sort gate)": "low polyreactivity"}
{"sequence": "QVQLVESGGGLVQAGGSLRLSCAASGTTISNYAMGWYRQAPGKERELVAGIDWSGGSTYYADSVKGRFTISRDNAKNTVYLHMNSLKPEDTAVYYCAKRVWYHGRKLRGYYWGQGTQVTVSS", "polyreactivity (PSR sort gate)": "low polyreactivity"}
{"sequence": "QVQLVESGGGLVQAGGSLRLSCAASGTTLYWNAMGWYRQAPGKERELVAAISRSGGSTYYADSVKGRFTISRDNAKNTVYLQMNSLKPEDTAVYYCAARRYVPHTEYYYWGQGTQVTVSS", "polyreactivity (PSR sort gate)": "low polyreactivity"}
{"sequence": "QVQLVESGGGLVQAGGSLRLSCAASGTTSPNAMGWYRQAPGKERELVAAMWSGGTYYADSVKGRFTISRDNAKNTVYLQMNSLKPEDTAVYYCAADGEFRRAWYEGDYWGQGTQVTVSS", "polyreactivity (PSR sort gate)": "low polyreactivity"}
{"sequence": "QVQLVESGGGLVQAGGSLRLSCAASGVIFSFYAMGWDREAPGKERELVAAISSSGSTNYADSVKGRFTISRDNAKNTVYLQMNSLKPEDTAVYYCNTYFRYFSFYGRPFDYWGQGTQVTVSS", "polyreactivity (PSR sort gate)": "high polyreactivity"}
{"sequence": "QVQLVESGGGLVQAGGSLRLSCAASGVTFRLDAMGCYRQAPGKDRELVAAISRSGTSTYYADSVKGRFTISRDNPKNTVYLHMNTRKPDDTAVYYCNTARYRYAWYTRYVSWGQGTQVTVSS", "polyreactivity (PSR sort gate)": "high polyreactivity"}
{"sequence": "QVQLVESGGGLVQAGGSLRLSCAASGYAMGWYRQAPGKERELVAAISWSGDITYADSVKGRFTISRDNAKNTVYLQMNSLKPEDTAVYYCNADRYTGRDGEQSLDYWGQGTQVTVSS", "polyreactivity (PSR sort gate)": "low polyreactivity"}
{"sequence": "QVQLVESGGGLVQAGGSLRLSCAASGYDMGWYRQAPGKERELVAAISRGGSTSYADSVKGRFTISRENAKNTVYLQMNSLKPEDTAVYYCAARYGSYRVGYDYWGQGTQVTVSS", "polyreactivity (PSR sort gate)": "low polyreactivity"}
{"sequence": "QVQLVESGGGLVQAGGSLRLSCAASGYIFAENAMGWYRQAPGKERELVATITYIGGSTHYADSVKGRFTISRDNAKNTVYLQMNSLKPEDTAVYYCNADNSTYYRSDFGYWGQGTQVTVSS", "polyreactivity (PSR sort gate)": "low polyreactivity"}
{"sequence": "QVQLVESGGGLVQAGGSLRLSCAASGYIFAVYAMGWYIQAPGKEREFVAVITWRGGSTYYADSVKGRFTISRDNAKNTVYLHMNSLKPEDTAVYYCAADVYAQYDYWGQGTQVTVSS", "polyreactivity (PSR sort gate)": "high polyreactivity"}
